US20250154279A1 (BEIGENE, published 2025)
Positions count from the first letter of the chain named. Numbers in names are those of the source.

Legend:
[1] = molecular target: T1, human GPC3 expressed on HepG2 cells (human, UniProt P51654 25-554); assay: flow cytometry on HepG2 cells
T1 construct: also called native huGPC3; native GPC3
Experimental: (§1) Briefly, anti-kappa antibody was immobilized on an activated CM5 biosensor chip (Cat.: BR100839, GE Life Sciences). […] Then a serial dilution (6.0 nM to 2150 nM) of human CD137 ECD-mIgG2a or huGPC3-His were flowed over the chip surface and changes in surface plasmon resonance signals were analyzed to calculate the association rates (kₒₙ) and dissociation rates (koff) by using the one-to-one Langmuir binding model (BIA Evaluation Software, GE Life Sciences). The equilibrium dissociation constant (KD) was calculated as the ratio koff/kₒₙ. […] Goat anti-Human IgG was used as secondary antibody to detect antibody binding to the cell surface. EC₅₀ values for dose-dependent binding to human native CD137 were determined by fitting the dose-response data to the four-parameter logistic model with GraphPad Prism™. […] Goat anti-Human IgG was used as secondary antibody to detect antibody binding to the cell surface. EC₅₀ values for dose-dependent binding to human native GPC3 were determined by fitting the dose-response data to the four-parameter logistic model with GraphPad Prism™.

[2] = molecular target: T2, human CD137 over-expressed on HuT78 cells (HuT78/CD137) (human, UniProt Q07011 24-255); assay: flow cytometry on live Hut78/huCD137 cells
T2 construct: also called Hut78/huCD137; native CD137
T2 sequence (Q07011 24-255 limits assumed): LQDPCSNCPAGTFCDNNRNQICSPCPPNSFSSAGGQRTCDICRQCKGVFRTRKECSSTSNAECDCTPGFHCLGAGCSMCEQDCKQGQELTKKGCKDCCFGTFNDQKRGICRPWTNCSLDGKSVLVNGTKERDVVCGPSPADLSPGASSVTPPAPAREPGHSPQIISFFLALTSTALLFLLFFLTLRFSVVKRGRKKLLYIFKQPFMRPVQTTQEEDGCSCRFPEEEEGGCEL
Experimental: as §1

huGPC3-His = molecular target: T3, huGPC3-His (human, UniProt P51654 25-559, limits assumed); assay: SPR (BIAcore T-200), BE-774 captured by anti-kappa antibody, huGPC3-His flowed over
T3 construct: not shown: His tag
T3 sequence (P51654 25-559 limits assumed): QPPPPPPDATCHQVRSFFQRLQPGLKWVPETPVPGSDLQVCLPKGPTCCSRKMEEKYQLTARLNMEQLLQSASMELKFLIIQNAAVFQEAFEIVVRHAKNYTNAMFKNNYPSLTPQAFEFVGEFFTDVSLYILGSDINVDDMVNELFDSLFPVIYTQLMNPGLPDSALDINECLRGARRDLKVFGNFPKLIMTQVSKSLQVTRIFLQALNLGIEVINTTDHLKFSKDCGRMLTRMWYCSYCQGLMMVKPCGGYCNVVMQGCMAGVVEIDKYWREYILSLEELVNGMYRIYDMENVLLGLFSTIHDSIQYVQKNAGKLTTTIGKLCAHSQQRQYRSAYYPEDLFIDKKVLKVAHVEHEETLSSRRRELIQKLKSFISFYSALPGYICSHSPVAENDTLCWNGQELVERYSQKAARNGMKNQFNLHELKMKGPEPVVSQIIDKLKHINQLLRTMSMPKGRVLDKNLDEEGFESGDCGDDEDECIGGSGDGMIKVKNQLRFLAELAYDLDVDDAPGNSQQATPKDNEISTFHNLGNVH
Experimental: as §1

human CD137 ECD-mIgG2a [3] = molecular target: T4, human CD137 ECD-mIgG2a (human); assay: SPR (BIAcore T-200), BE-774 captured by anti-kappa antibody, human CD137 ECD-mIgG2a flowed over
T4 construct: also called huCD137
Experimental: as §1

[4] = molecular target: T5, human CD137 (Cat.: 41B-H5256, Acrobio, CHINA) (human, UniProt Q07011 24-186); assay: SPR
T5 construct: Bought protein
Experimental: (§2) The binding kinetics of the antibodies were measured using surface plasmon resonance (SPR). SPR was used to measure the on-rate constant (Kₐ) and off-rate constant (Kd) of the antibodies to recombinant proteins of CD137 and GPC3 and then determined the affinity constant (KD).

[5] = molecular target: T6, cynomolgus monkey CD137 ECD (cynomolgus monkey); assay: SPR
T6 construct: also called Cyno CD137; Cyno CD137 ECD
T6 chain: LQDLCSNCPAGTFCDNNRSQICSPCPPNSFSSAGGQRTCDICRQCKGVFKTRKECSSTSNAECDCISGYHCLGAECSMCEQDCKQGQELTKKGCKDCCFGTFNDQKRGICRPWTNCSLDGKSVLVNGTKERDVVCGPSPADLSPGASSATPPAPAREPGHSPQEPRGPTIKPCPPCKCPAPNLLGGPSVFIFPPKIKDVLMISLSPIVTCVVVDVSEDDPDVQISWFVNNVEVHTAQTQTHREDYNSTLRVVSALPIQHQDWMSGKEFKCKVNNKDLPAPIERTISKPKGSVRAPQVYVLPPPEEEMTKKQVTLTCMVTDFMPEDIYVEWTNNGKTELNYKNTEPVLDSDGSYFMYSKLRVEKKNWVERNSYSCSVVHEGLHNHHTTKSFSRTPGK
Experimental: as §2

[6] = molecular target: T7, human GPC3 (Cat.: 10088-H08H, Sino Biological, CHINA) (human, UniProt P51654 25-559); assay: SPR
T7 construct: Bought protein
T7 sequence (P51654 25-559 limits assumed): as the sequence (P51654 25-559 limits assumed) above
Experimental: as §2

[7] = molecular target: T8, cynomolgus monkey GPC3 (Cat.: GP3-C5225, Acrobio, CHINA) (cynomolgus monkey, UniProt A0A2K5VK50 24-558); assay: SPR
T8 construct: also called Cyno GPC3
Experimental: as §2

[8] = molecular target: T1, human GPC3 expressed on HepG2 cells; assay: FACS on HepG2 cells
[9] = molecular target: T2, human CD137 over-expressed on HuT78 …; assay: FACS on HuT78/CD137 cells
[10] = molecular target: T2, human CD137 over-expressed on HuT78 …; assay: flow cytometry on HuT78/CD137 cells, detection anti-hFc 647, no CD137L added
mouse CD137 = molecular target: T9, mouse CD137 (mouse, UniProt P20334 24-187, limits assumed); assay: antigen ELISA
T9 construct: Coated antigen in ELISA; construct not described
T9 sequence (looked up): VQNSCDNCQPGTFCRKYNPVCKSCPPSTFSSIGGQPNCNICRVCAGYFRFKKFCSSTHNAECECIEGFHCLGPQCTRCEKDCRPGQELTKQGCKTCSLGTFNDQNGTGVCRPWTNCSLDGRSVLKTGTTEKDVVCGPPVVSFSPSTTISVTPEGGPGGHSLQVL
Experimental: (§3) For antigen ELISA, a Maxisorp immunoplate was coated with antigens and blocked with 3% BSA (w/v) in PBS buffer (blocking buffer). Monoclonal VHH antibodies were blocked with blocking buffer for 30 minutes and added to wells of the ELISA plate for 1 hour. After washes with PBST, bound antibodies were detected using HRP-conjugated anti-human IgG antibody (Sigma, A0170) and 3,3′,5,5′-tetramethylbenzidine substrate (Cat.: 00-4201-56, eBioscience, USA). Ligand competition was also applied in a ELISA assay.

huCD137-his = molecular target: T10, huCD137-his; assay: antigen ELISA, coated huCD137-his, detection with HRP anti-human IgG, single antibody concentration not given; competitor where added: 20 ug/ml CD137L
T10 construct: The sheet prints only 'huCD137-his'; also called human CD137-ECD-his
T10 extracellular domain with C-terminal His tag: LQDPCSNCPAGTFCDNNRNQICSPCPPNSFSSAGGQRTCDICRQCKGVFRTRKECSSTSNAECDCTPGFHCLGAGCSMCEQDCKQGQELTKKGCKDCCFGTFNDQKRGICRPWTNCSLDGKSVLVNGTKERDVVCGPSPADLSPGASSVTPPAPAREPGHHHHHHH
Experimental: as §3

human CD137 ECD-mIgG2a [11] = molecular target: T4, human CD137 ECD-mIgG2a; assay: antigen ELISA, coated huCD137-mIgG2a, detection with HRP anti-human IgG, single antibody concentration not given; competitor where added: 20 ug/ml CD137L
Experimental: as §3

T1 sequence (P51654 25-554 limits assumed): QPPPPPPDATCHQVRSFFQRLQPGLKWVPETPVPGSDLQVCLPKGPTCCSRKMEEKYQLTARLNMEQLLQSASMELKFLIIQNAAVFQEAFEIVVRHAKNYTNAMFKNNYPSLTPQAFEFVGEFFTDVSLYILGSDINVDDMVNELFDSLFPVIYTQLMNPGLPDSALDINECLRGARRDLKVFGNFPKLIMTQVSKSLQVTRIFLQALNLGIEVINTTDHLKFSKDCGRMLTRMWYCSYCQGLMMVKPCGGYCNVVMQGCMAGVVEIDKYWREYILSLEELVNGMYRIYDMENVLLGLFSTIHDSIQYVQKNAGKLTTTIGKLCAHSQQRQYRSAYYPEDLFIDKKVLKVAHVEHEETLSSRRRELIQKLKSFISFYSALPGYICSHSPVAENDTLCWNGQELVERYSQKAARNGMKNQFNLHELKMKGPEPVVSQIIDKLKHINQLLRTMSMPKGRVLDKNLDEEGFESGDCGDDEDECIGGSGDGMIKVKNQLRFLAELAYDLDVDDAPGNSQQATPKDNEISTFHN

B1: BE-774 (anti-GPC3 x CD137 bispecific antibody, GPC3 antibody + VHH BGA-9612, IgG1mf Fc-YTE) (bispecific antibody)
heavy: QVQLVQSGAEVKKPGASVKVSCKASGYTFTDYEMHWVRQAPGQGLEWMGALDPKTGDTAYSQKFKGRVTLTADKSTSTAYMELSSLTSEDTAVYYCTRFYSYTYWGQGTLVTVSSASTKGPSVFPLAPSSKSTSGGTAALGCLVKDYFPEPVTVSWNSGALTSGVHTFPAVLQSSGLYSLSSVVTVPSSSLGTQTYICNVNHKPSNTKVDKKVEPKSCDKTHTCPPCPAPPAAGPSVFLFPPKPKDTLYITREPEVTCVVVDVSHEDPEVKFNWYVDGVEVHNAKTKPREEQYNSTYRVVSVLTVLHQDWLNGKEYKCKVSNKALAAPIEKTISKAKGQPREPQVYTLPPSREEMTKNQVSLTCLVKGFYPSDIAVEWESNGQPENNYKTTPPVLDSDGSFFLYSKLTVDKSRWQQGNVFSCSVMHEALHNHYTQKSLSLSPGKGGGGSEVQLVESGGGTVQPGDSLRLSCAASGRTFDNYAVGWFRQAPGKERQYVGTYWSGYAHYGDFENNRFTISRDNAKNTVYLQMDNLKPEDTAVYYCAISLKYPMATVTPDYQGQGTQVTVSS
light: DVVMTQSPLSLPVTPGEPASISCRSSQSLVHSNRNTYLHWYLQKPGQSPQLLIYKVSNRFSGVPDRFSGSGSGTDFTLKISRVEAEDVGVYYCSQNTHVPPTFGQGTKLEIKRTVAAPSVFIFPPSDEQLKSGTASVVCLLNNFYPREAKVQWKVDNALQSGNSQESVTEQDSKDSTYSLSSTLTLSKADYEKHKVYACEVTHQGLSSPVTKSFNRGEC
For B1, which EC50 [1] is on record?
The EC50 was 0.9 nM.

What about the EC50 [2] of the same binder?
The EC50 was 0.7 nM.

What about the Kd (huGPC3-His) of the same binder?
The Kd was 1.01 nM.

What about the koff (huGPC3-His) of the same binder?
The koff was 0.00022 s⁻¹.

What about the kon (huGPC3-His) of the same binder?
The kon was 218000 M⁻¹ s⁻¹.

What about the Kd (human CD137 ECD-mIgG2a [3]) of the same binder?
The Kd was 0.529 nM.

And the koff (human CD137 ECD-mIgG2a [3])?
Its koff is 0.000425 s⁻¹.

What about the kon (human CD137 ECD-mIgG2a [3]) of the same binder?
The kon was 804000 M⁻¹ s⁻¹.

B2: BE-915 (anti-GPC3 x CD137 bispecific antibody, GPC3 antibody + VHH BGA-2524, IgG1mf Fc-YTE) (bispecific antibody)
heavy: B1 heavy with T460L, D465G, Q495E, D531N, K534R
light: B1 light
What does the source list for B2?
Kd [4]: 3.6 nM; koff [4]: 0.00042 s⁻¹; kon [4]: 120000 M⁻¹ s⁻¹; Kd [5]: 4.4 nM; koff [5]: 0.00055 s⁻¹; kon [5]: 130000 M⁻¹ s⁻¹; Kd [6]: 2.4 nM; koff [6]: 0.00014 s⁻¹; kon [6]: 58000 M⁻¹ s⁻¹; Kd [7]: 0.53 nM; koff [7]: 0.00011 s⁻¹; kon [7]: 210000 M⁻¹ s⁻¹; EC50 [8]: 1.09 nM; EC50 [9]: 0.69 nM; EC50 (read off the curve) [10]: ~0.1 µg/mL

B3: BGA-9612 VHH-Fc (camelid anti-huCD137 VHH fused at the N terminal of human IgG1 Fc-null with a G4S linker) (VHH)
VHH: QVQLVESGGGTVQPGDSLRLSCAASGRTFDNYAVGWFRQAPGKERQYVGTYWSGYAHYGDFENNRFTISRDNAKNTVYLQMDNLKPEDTAVYYCAISLKYPMATVTPDYQGQGTQVTVSS
Does B3 bind (mouse CD137)?
Result: no binding

Does B3 bind (huCD137-his)?
Result: binds

Does B3 bind (human CD137 ECD-mIgG2a [11])?
Result: binds
